Key:
Details in all cases: tags: HA tag (YPYDVPDYA) at C-terminus; label: biotin
[1] = target: T1, TNFR1-7-9 six-zinc finger peptide (synthetic construct); experiment: fluorescence ELISA; 50 uM ZnCl2, RT
Protocol: (§1) DNA binding reactions contained the appropriate zinc finger peptide, biotinylated binding site (10 nM) and 5 μg competitor. DNA (sonicated salmon sperm DNA), in a total volume of 50 μl, which contained: 1×PBS (pH 7.0), 1.25×10⁻³ U high affinity anti-HA-Peroxidase antibody (Boehringer Mannheim), 50 μM ZnCl₂, 0.01 mg/ml BSA, and 0.5% Tween 20. Incubations are performed at room temperature for 40 minutes. Black streptavidin-coated wells are blocked with 4% marvel for 1 hour. Binding reactions are added to the streptavidin-coated wells and incubated for a further 40 minutes at room temperature. Wells are washed 5 times in 100 μl wash buffer (1×PBS (pH 7.0), 50 μM ZnCl₂, 0.01 mg/ml BSA, and 0.5% Tween 20), and finally 50 μl QuantaBlu peroxidase substrate solution (Pierce) is added to detect bound HA-tagged zinc finger peptide. ELISA signals are read in a SPECTRAmax GeminiXS spectrophotometer (Molecular Devices) and analysed using SOFTmax Pro 3.1.2 (Molecular Devices).
(§2) Zinc finger peptides are expressed using the T7 TNT Quick Coupled Transcription/Translation System for PCR templates (Promega) and assayed for DNA-binding by fluorescence ELISA, as described above in Examples 4 and 6. Sequences of the DNA target sites used in each binding reaction are shown below FIG. 3A.

[2] = target: CXCR4-5-1 six-zinc finger peptide (synthetic construct); experiment: fluorescence ELISA; 10 nM site, 50 uM ZnCl2, salmon sperm competitor, RT
Protocol: as §1
as §2, with “ELISA (see above; FIG. 1). Binding is plotted vertically, on a relative scale.” for “ELISA, as described above in Examples 4 and 6.”, “the figure. […]” for “FIG. 3A.”

[3] = target: CXCR4-10-1 six-zinc finger peptide (synthetic construct); experiment: as above
Protocol: as §1
as §2, with “ELISA (see above; FIG. 1). Binding is plotted vertically, on a relative scale.” for “ELISA, as described above in Examples 4 and 6.”, “the figure. […]” for “FIG. 3A.”

[4] = target: TNFR1-4-2 six-zinc finger peptide (synthetic construct); experiment: fluorescence ELISA; 50 uM ZnCl2, RT
Protocol: as §1, §2

[5] = target: T1, TNFR1-7-9 six-zinc finger peptide; experiment: fluorescence ELISA; control site; signal only in figure, text states specific binding
Protocol: as §1, §2

[6] = target: TNFR1-9-12 six-zinc finger peptide (synthetic construct); experiment: as above
Protocol: as §1, §2

T1 sequence (chain, as listed by the source): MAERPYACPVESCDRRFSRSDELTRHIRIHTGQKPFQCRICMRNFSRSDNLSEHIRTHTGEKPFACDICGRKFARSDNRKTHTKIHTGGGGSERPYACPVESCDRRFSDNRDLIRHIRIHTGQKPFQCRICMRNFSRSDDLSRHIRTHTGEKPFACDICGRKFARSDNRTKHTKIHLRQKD
TNFR1-9-12 six-zinc finger peptide (synthetic construct), sequence (chain, as listed by the source): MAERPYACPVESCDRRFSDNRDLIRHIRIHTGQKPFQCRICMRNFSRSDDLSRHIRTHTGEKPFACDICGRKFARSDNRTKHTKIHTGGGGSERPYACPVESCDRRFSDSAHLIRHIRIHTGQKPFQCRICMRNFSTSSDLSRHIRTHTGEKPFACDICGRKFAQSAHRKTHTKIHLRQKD
CXCR4-5-1 six-zinc finger peptide (synthetic construct), sequence (chain, as listed by the source): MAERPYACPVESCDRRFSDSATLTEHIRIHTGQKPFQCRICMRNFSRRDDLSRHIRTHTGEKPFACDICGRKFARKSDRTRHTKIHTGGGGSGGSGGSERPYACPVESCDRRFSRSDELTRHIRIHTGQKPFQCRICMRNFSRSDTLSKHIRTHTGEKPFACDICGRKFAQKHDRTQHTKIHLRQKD
TNFR1-4-2 six-zinc finger peptide (synthetic construct), sequence (chain, as listed by the source): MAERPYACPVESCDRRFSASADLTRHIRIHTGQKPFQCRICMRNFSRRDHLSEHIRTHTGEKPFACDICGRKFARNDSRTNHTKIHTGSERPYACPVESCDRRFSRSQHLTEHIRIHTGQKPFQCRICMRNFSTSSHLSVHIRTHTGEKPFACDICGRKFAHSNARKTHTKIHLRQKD
CXCR4-10-1 six-zinc finger peptide (synthetic construct), sequence (chain, as listed by the source): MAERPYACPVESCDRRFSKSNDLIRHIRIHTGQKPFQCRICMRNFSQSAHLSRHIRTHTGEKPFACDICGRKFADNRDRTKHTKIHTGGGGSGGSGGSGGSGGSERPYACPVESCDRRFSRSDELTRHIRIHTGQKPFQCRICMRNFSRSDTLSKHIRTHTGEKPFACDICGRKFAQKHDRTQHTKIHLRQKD

B1: TNFR1 site 7-9 / 7-10 (dsDNA)
DNA 1: TGGAGGAGGAGGCCACAGGAGGCGGGAGGA
DNA 2: TCCTCCCGCCTCCTGTGGCCTCCTCCTCCA
Does B1 bind [1]?
Result: binds

B2: CXCR4-5-1 target site (dsDNA)
DNA 1: CCGCCCCAGCGGCGCATGCGCCGCGCTCGGAGCGTGTT
DNA 2: AACACGCTCCGAGCGCGGCGCATGCGCCGCTGGGGCGG
Does B2 bind [2]?
Result: binds

B3: CXCR4-10-1 target site (dsDNA)
DNA 1: CCGCCCCAGCGGCGCATGCGCCGCGCTCGGAGCGTGTT
DNA 2: AACACGCTCCGAGCGCGGCGCATGCGCCGCTGGGGCGG
Does B3 bind [3]?
Result: binds

B4: TNFR1 site 4-2 (dsDNA)
DNA 1: GTCGGATTGGTGGGTTGGGGGCACAAGGCA
DNA 2: TGCCTTGTGCCCCCAACCCACCAATCCGAC
Which results are given for B4?
binding result [4]: binds; binding result [5]: no binding; binding result [6]: no binding
